Test results: patent US20200317768A1 (published 2020)

T1: human FcγRIIb extracellular domain with C-terminal His-tag (human, UniProt P31994 43-217)
T1 construct: Expressed in FreeStyle 293 cells and purified; also called humanFcgRIIb; not shown: C-terminal His-tag
T1 sequence: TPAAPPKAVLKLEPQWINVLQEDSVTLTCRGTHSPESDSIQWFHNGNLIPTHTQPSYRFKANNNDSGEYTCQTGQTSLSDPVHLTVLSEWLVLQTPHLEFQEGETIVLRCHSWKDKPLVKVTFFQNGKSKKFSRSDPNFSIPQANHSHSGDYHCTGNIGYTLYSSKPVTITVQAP

T2: cynomolgus monkey FcγRIIa1 extracellular domain with C-terminal His-tag (cynomolgus monkey)
T2 construct: Expressed in FreeStyle 293 cells and purified; also called cyno FcγRIIa1; cynoFcgRIIa1; not shown: C-terminal His-tag
T2 chain: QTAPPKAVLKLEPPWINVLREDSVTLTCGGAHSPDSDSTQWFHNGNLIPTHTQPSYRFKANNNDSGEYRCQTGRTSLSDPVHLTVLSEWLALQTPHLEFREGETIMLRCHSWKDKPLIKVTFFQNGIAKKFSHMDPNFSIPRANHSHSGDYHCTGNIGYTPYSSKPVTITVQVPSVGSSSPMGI


Experiments:
Experiment in all cases: SPR (Biacore); KD of SG1 divided by KD of the variant for this FcgR;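 also: relative to parent M103205H795-SG1 carrying the SG1 human heavy chain constant region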
[1] = molecular target: T1, human FcγRIIb extracellular domain with …
Procedure: (§1) The kinetic analysis of interactions between these antibodies and FcγR was carried out using BIACORE® T200 or BIACORE® 4000 (GE Healthcare). HBS-EP+ (GE Healthcare) was used as the running buffer, and the measurement temperature was set to 25° C. A chip produced by immobilizing Protein A. Protein A/G or mouse anti-human IgG kappa light chain (BD Biosciences) onto a Series S Sensor Chip CM4 or CM5 (GE Healthcare) by the amine-coupling method was used. […] After the measurement, the antibody captured on the chip was washed off by allowing reaction with 10 mM glycine-HCl, pH1.5 and 25 mM NaOH so that the chip was regenerated and used repeatedly. The sensorgrams obtained as measurement results were analyzed by the 1:1 Langmuir binding model using the BIACORE® Evaluation Software to calculate the binding rate constant ka (L/mol/s) and dissociation rate constant kd (l/s), and the dissociation constant KD (mol/L) was calculated from these values. […] Regarding such interactions, KD values were calculated using the following 1:1 binding model described in BIACORE® T100 Software Handbook BR1006-48 Edition AE.
(§2) The resultant variants were expressed using M103202L889-SK1 as light chain and their affinity to human and cynoFcγRs were evaluated (Table 20).

[2] = molecular target: T3, human FcγRIIIaV extracellular domain with C-terminal His-tag (human, UniProt P08637 17-208)
T3 construct: Expressed in FreeStyle 293 cells and purified; also called FcgRIIIaV; not shown: C-terminal His-tag
Procedure: as §1, §2

[3] = molecular target: T2, cynomolgus monkey FcγRIIa1 …
Procedure: as §1, §2

T3 sequence (P08637 17-208 F176V): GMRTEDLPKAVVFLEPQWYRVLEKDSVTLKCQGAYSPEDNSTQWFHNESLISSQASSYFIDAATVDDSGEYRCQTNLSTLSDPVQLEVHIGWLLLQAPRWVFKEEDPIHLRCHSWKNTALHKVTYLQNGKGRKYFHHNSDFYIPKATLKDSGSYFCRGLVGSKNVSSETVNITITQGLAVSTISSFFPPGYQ

KD fold (SG1 = 1) [1] [fold]	KD fold (SG1 = 1) [2] [fold]	KD fold (SG1 = 1) [3] [fold]	Binder
1	1	1	MS_M103205H795-SG1/M103202L889-SK1 (antibody, human IgG1, kappa, Anti-latent myostatin IgG; also called MS1032LO06-SG1) heavy: not shown light: DIVMTQSPATLSLSPGERATLSCTSSQSVYHANWLSWFQQKPGQPPKLLIYWASTLAYGVPSRFSGSGSGTDFTLTISSLQPEDAATYYCAGGYGGGRYAFGQGTKVEIKRTVAAPSVFIFPPSDEQLKSGTASVVCLLNNFYPREAKVQWKVDNALQSGNSQESVTEQDSKDSTYSLSSTLTLSKADYEKHKVYACEVTHQGLSSPVTKSFNRGEC
3.8	0.14	1.4	M103205H795-MY171 / M103202L889-SK1 (antibody, human IgG1, kappa, Position 396 variant derived from MY052, expressed with M103202L889-SK1 as light chain) heavy: QVTLKESGPVLVKPTETLTLTCTVSGIDLSHDDISWVRQAPGKGLEWVGIISYAGSTYYASWAKGRLTISKDTSKNQVVLTMTNMDPVDTATYYCARGVPAYSHGGDLWGQGTLVTVSSASTKGPSVFPLAPSSKSTSGGTAALGCLVKDYFPEPVTVSWNSGALTSGVHTFPAVLQSSGLYSLSSVVTVPSSSLGTQTYICNVNHKPSNTKVDKKVEPKSCDKTHTCPPCPAPELLNGPSVFLFPPKPKDTLMISRTPEVTCVVVDVSEEDPEVKFNWYVDGVEVHNAKTKPREEQYNSTYRVVSVLTVLHQDWLNGKEYKCKVSNKALPAPIEKTISKAKGQPREPQVYTLPPSREEMTKNQVSLTCLVKGFYPSDIAVEWESNGQPENNYKTTPFVLDSDGSFFLYSKLTVDKSRWQQGNVFSCSVMHEALHNHYTQKSLSLSP light: DIVMTQSPATLSLSPGERATLSCTSSQSVYHANWLSWFQQKPGQPPKLLIYWASTLAYGVPSRFSGSGSGTDFTLTISSLQPEDAATYYCAGGYGGGRYAFGQGTKVEIKRTVAAPSVFIFPPSDEQLKSGTASVVCLLNNFYPREAKVQWKVDNALQSGNSQESVTEQDSKDSTYSLSSTLTLSKADYEKHKVYACEVTHQGLSSPVTKSFNRGEC
6.4	0.54	2.3	M103205H795-MY052 / M103202L889-SK1 (antibody, human IgG1, kappa, Fc variant of M103205H795-SG1, expressed with M103202L889-SK1 as light chain; parent of the position 396 variants) heavy: QVTLKESGPVLVKPTETLTLTCTVSGIDLSHDDISWVRQAPGKGLEWVGIISYAGSTYYASWAKGRLTISKDTSKNQVVLTMTNMDPVDTATYYCARGVPAYSHGGDLWGQGTLVTVSSASTKGPSVFPLAPSSKSTSGGTAALGCLVKDYFPEPVTVSWNSGALTSGVHTFPAVLQSSGLYSLSSVVTVPSSSLGTQTYICNVNHKPSNTKVDKKVEPKSCDKTHTCPPCPAPELLNGPSVFLFPPKPKDTLMISRTPEVTCVVVDVSEEDPEVKFNWYVDGVEVHNAKTKPREEQYNSTYRVVSVLTVLHQDWLNGKEYKCKVSNKALPAPIEKTISKAKGQPREPQVYTLPPSREEMTKNQVSLTCLVKGFYPSDIAVEWESNGQPENNYKTTPMVLDSDGSFFLYSKLTVDKSRWQQGNVFSCSVMHEALHNHYTQKSLSLSP light: DIVMTQSPATLSLSPGERATLSCTSSQSVYHANWLSWFQQKPGQPPKLLIYWASTLAYGVPSRFSGSGSGTDFTLTISSLQPEDAATYYCAGGYGGGRYAFGQGTKVEIKRTVAAPSVFIFPPSDEQLKSGTASVVCLLNNFYPREAKVQWKVDNALQSGNSQESVTEQDSKDSTYSLSSTLTLSKADYEKHKVYACEVTHQGLSSPVTKSFNRGEC
2.9	0.13	1.4	M103205H795-MY170 / M103202L889-SK1 (antibody, human IgG1, kappa, Position 396 variant derived from MY052, expressed with M103202L889-SK1 as light chain) heavy: QVTLKESGPVLVKPTETLTLTCTVSGIDLSHDDISWVRQAPGKGLEWVGIISYAGSTYYASWAKGRLTISKDTSKNQVVLTMTNMDPVDTATYYCARGVPAYSHGGDLWGQGTLVTVSSASTKGPSVFPLAPSSKSTSGGTAALGCLVKDYFPEPVTVSWNSGALTSGVHTFPAVLQSSGLYSLSSVVTVPSSSLGTQTYICNVNHKPSNTKVDKKVEPKSCDKTHTCPPCPAPELLNGPSVFLFPPKPKDTLMISRTPEVTCVVVDVSEEDPEVKFNWYVDGVEVHNAKTKPREEQYNSTYRVVSVLTVLHQDWLNGKEYKCKVSNKALPAPIEKTISKAKGQPREPQVYTLPPSREEMTKNQVSLTCLVKGFYPSDIAVEWESNGQPENNYKTTPEVLDSDGSFFLYSKLTVDKSRWQQGNVFSCSVMHEALHNHYTQKSLSLSP light: DIVMTQSPATLSLSPGERATLSCTSSQSVYHANWLSWFQQKPGQPPKLLIYWASTLAYGVPSRFSGSGSGTDFTLTISSLQPEDAATYYCAGGYGGGRYAFGQGTKVEIKRTVAAPSVFIFPPSDEQLKSGTASVVCLLNNFYPREAKVQWKVDNALQSGNSQESVTEQDSKDSTYSLSSTLTLSKADYEKHKVYACEVTHQGLSSPVTKSFNRGEC
2.7	0.1	1.5	M103205H795-MY168 / M103202L889-SK1 (antibody, human IgG1, kappa, Position 396 variant derived from MY052, expressed with M103202L889-SK1 as light chain) heavy: QVTLKESGPVLVKPTETLTLTCTVSGIDLSHDDISWVRQAPGKGLEWVGIISYAGSTYYASWAKGRLTISKDTSKNQVVLTMTNMDPVDTATYYCARGVPAYSHGGDLWGQGTLVTVSSASTKGPSVFPLAPSSKSTSGGTAALGCLVKDYFPEPVTVSWNSGALTSGVHTFPAVLQSSGLYSLSSVVTVPSSSLGTQTYICNVNHKPSNTKVDKKVEPKSCDKTHTCPPCPAPELLNGPSVFLFPPKPKDTLMISRTPEVTCVVVDVSEEDPEVKFNWYVDGVEVHNAKTKPREEQYNSTYRVVSVLTVLHQDWLNGKEYKCKVSNKALPAPIEKTISKAKGQPREPQVYTLPPSREEMTKNQVSLTCLVKGFYPSDIAVEWESNGQPENNYKTTPAVLDSDGSFFLYSKLTVDKSRWQQGNVFSCSVMHEALHNHYTQKSLSLSP light: DIVMTQSPATLSLSPGERATLSCTSSQSVYHANWLSWFQQKPGQPPKLLIYWASTLAYGVPSRFSGSGSGTDFTLTISSLQPEDAATYYCAGGYGGGRYAFGQGTKVEIKRTVAAPSVFIFPPSDEQLKSGTASVVCLLNNFYPREAKVQWKVDNALQSGNSQESVTEQDSKDSTYSLSSTLTLSKADYEKHKVYACEVTHQGLSSPVTKSFNRGEC
3.5	0.13	1.4	M103205H795-MY169 / M103202L889-SK1 (antibody, human IgG1, kappa, Position 396 variant derived from MY052, expressed with M103202L889-SK1 as light chain) heavy: QVTLKESGPVLVKPTETLTLTCTVSGIDLSHDDISWVRQAPGKGLEWVGIISYAGSTYYASWAKGRLTISKDTSKNQVVLTMTNMDPVDTATYYCARGVPAYSHGGDLWGQGTLVTVSSASTKGPSVFPLAPSSKSTSGGTAALGCLVKDYFPEPVTVSWNSGALTSGVHTFPAVLQSSGLYSLSSVVTVPSSSLGTQTYICNVNHKPSNTKVDKKVEPKSCDKTHTCPPCPAPELLNGPSVFLFPPKPKDTLMISRTPEVTCVVVDVSEEDPEVKFNWYVDGVEVHNAKTKPREEQYNSTYRVVSVLTVLHQDWLNGKEYKCKVSNKALPAPIEKTISKAKGQPREPQVYTLPPSREEMTKNQVSLTCLVKGFYPSDIAVEWESNGQPENNYKTTPDVLDSDGSFFLYSKLTVDKSRWQQGNVFSCSVMHEALHNHYTQKSLSLSP light: DIVMTQSPATLSLSPGERATLSCTSSQSVYHANWLSWFQQKPGQPPKLLIYWASTLAYGVPSRFSGSGSGTDFTLTISSLQPEDAATYYCAGGYGGGRYAFGQGTKVEIKRTVAAPSVFIFPPSDEQLKSGTASVVCLLNNFYPREAKVQWKVDNALQSGNSQESVTEQDSKDSTYSLSSTLTLSKADYEKHKVYACEVTHQGLSSPVTKSFNRGEC
